Here are results for nine molecules from US20240102068A1, “C-GLYCOSYLTRANSFERASE VARIANTS AND USE THEREOF” (KOREA ADVANCED INSTITUTE OF SCIENCE AND TECHNOLOGY, priority 2021, published 2024).

One assay deals with FK. Kind of assay: dcII production from FK by C-glycosyltransferase candidates and GtCGT mutants in FK-producing E. coli, flask culture. The format is cell-based. The note with it: for dcII production: FK-producing E. coli strain; for KA production compared with wild-type GtCGT: mutants transformed into FK strains. Here is the method:
Flask culture was carried out under the following conditions. Colonies were seeded into 10 mL of LB medium supplemented with appropriate concentrations of antibiotics, followed by culture overnight at 37° C. The culture fluid thus prepared was passaged into a 250 mL baffled flask containing 50 mL of R/2 medium supplemented with 3 g/L yeast extract and 20 g/L glucose (with 0.45 g/L ascorbic acid if necessary), followed by culture at 30° C. and 200 rpm. The composition of R/2 medium (pH 6.8) was as follows (per liter): 2 g of (NH4)2HPO4, 6.75 g of KH2PO4, 0.85 g of citric acid, 0.7 g of MgSO4·7H2O, and 5 ml of trace metal solution (TMS) [10 g of FeSO4·7H2O, 2.25 g of ZnSO4·7H2O, 1 g of CuSO4·5H2O, 0.5 g of MnSO4·5H2O, 0.23 g of Na2B4O7·10H2O, 2 g of CaCl2·2H2O, and 0.1 g of (NH4)6Mo7O24 per liter of 5 M HCl]. When OD600 of the culture fluid reached 0.6-0.8, 1 mM isopropyl β-D-1-thiogalactopyranoside (IPTG) was added to induce exogenous gene expression, followed by culture for 48 hours.
After culture, production analysis was performed under the following conditions. After flask culture, 50 mL of the culture fluid was centrifuged at 4,000 g for 30 minutes, and then the supernatant was desalted and concentrated. Here, Oasis HLB cartridges (Water) were used. The supernatant was concentrated 1-fold for FK, 30-fold for KA, 45-fold for dell, and 200-fold for carminic acid. The concentrated sample was re-dissolved in an appropriate volume of DMSO and impurities were then removed therefrom using a 0.22 μm PTFE filter. The prepared sample was analyzed by MS (LC/MSD VL; Agilent) coupled with HPLC (1100 series; Agilent). An Eclipse XDB-C18 column was used, 0.1% formic acid was used as buffer A, and methanol was used as buffer B. Analysis was performed in an ESI negative mode. For more accurate analysis of carminic acid, LC-MS/MS was performed using an HPLC Triple Quadrupole Mass Spectrometer (LCMS-8050, Shimadzu) (MRM mode).
Flask culture started by seeding colonies from LB agar plates into test tubes containing 10 mL of LB. As such, an appropriate concentration of antibiotics was added, followed by culture overnight at 37° C. at 220 rpm. 1 mL of the seed culture thus prepared was inoculated into a 250 mL baffled flask containing 50 mL of R/2 medium (supplemented with 3 g/L yeast extract and 20 g/L glucose), followed by culture at 30° C. and 200 rpm. The composition of R/2 medium was as follows (pH 6.8, per 1 L): 2 g of (NH4)2HPO4, 6.75 g of KH2PO4, 0.85 g of citric acid, 0.8 g of MgSO4·7H2O, and 5 ml of trace metal solution (TMS). The composition of TMS was as follows (based on 0.1 M HCl, per 1 L): 10 g of FeSO4·7H2O, 2.25 g of ZnSO4·7H2O, 1 g of CuSO4·5H2O, 0.58 g of MnSO4·5H2O, 0.02 g of Na2B4O7·10H2O, 2 g of CaCl2·2H2O, and 0.1 g of (NH4)6Mo7O24·4H2O. When OD600 of the culture fluid reached 0.6-0.8, 0.5 mM IPTG was added to induce exogenous enzyme expression, followed by culture for 48 hours. In all experiments for producing flavokermesic acid, kermesic acid, dcII, and carminic acid, 0.45 g/L of ascorbic acid was further added.
The production of carminic acid (CA) from FK was performed by two biosynthesis pathways, both of which require monooxygenase and C-glycosyltransferase. FK may be oxidized into KA or may be C-glycosylated into dcII. […] In order for the enzyme to have activity, however, it must be glycosylated, and since it also has a transmembrane helix and a signal peptide, successful expression in cells such as E. coli is considered difficult.
For the enzymes selected above, pCDF-DcCGT, pCDF-MiCGT, pCDF-SfCGT, pCDF-EnCGT, pCDF-OsCGT, pCDF-FeCGT, pCDF-GmCGT, pCDF-AvCGT, pCDF-AvCGT, pCDF-ZmCGT, and pCDF-GtCGT were constructed, and all genes except for the iroB gene amplified from genomic DNA of E. coli Nissle using the iroB_gib_F primer and the iroB_gib_R primer were artificially synthesized and inserted into the NdeI site of the pCDFDuet-1 plasmid using Gibson assembly. […]

For a further assay, the system named is aloesone. Kind of assay: Aloesin production from aloesone by GtCGT and variants in E. coli BL21(DE3), flask culture. The format is cell-based. Here is the method: Also, in LC-MS/MS for aloesin analysis, MS (Agilent 6550 iFunnel Q-TOF LC/MS System) coupled with ultra HPLC (UHPLC; 1290 Infinity II LC System; Agilent) was used. Here, an Eclipse-plus C18 column was used, and 0.1% formic acid was used as buffer A, and acetonitrile to which 0.1% formic acid was added was used as buffer B.
Thereafter, in order to test the production of aloesin, the pCDF-GtCGT or pCDF-GtCGT^V93Q/Y193F plasmid was transformed into the BL21(DE3) strain containing pWAS-anti-pabA, pRSF-RpALS, and pBBR1-zwf plasmids, followed by flask culture.
Similarly to the test for increased production of aloesone, RpALS was additionally introduced to increase aloesin production. To this end, pCDF-RpALS-GtCGT^V93Q/Y193F was constructed instead of introducing pCDF-GtCGT^V93Q/Y193F. Specifically, RpALS was amplified from pCDF-RpALS using pCDFDuet F and pCDFDuet R primers, and inserted into the NcoI and BamHI sites of the pCA plasmid through Gibson assembly. Thereafter, four plasmids, namely pRSF-RpALS, pCDF-RpALS-GtCGT^V93Q/Y193F, pWAS-anti-pabA, and pBBR1-zwf, were transformed into E. coli BL21(DE3), which was named an ALS strain.
(§1) Mutagenesis for a specific sequence was performed in the same manner as in Example 2. Here, plasmids containing gene mutants were constructed using pCDF-RpALS-GtCGT^V93Q/Y193F as a template and using primer pairs shown in Table 11 below. The plasmids thus constructed were transformed into the BL21 (DE3) strain along with three plasmids, namely pWAS-anti-pabA, pRSF-RpALS, and pBBR1-zwf, followed by flask culture under the same conditions as in Example 3 using the strains thus constructed. The concentration of aloesin produced was measured in an MRM mode of the HPLC Triple Quadrupole Mass Spectrometer (LCMS-8050, Shimadzu) of the KAIST Biocore Center.
as §1, with “13” for “11”

Where a chain is given by its changes, count along the chain named. Numbers in names are those of the source. Entries after “also recorded” stand apart in the source; their conditions may differ.

B1: GtCGT: wild-type C-glycosyltransferase GtUF6CGT1 from Gentiana triflora (SEQ ID NO: 1) (protein, listed as Gentiana triflora)
chain: MGSLTNNDNLHIFLVCFIGQGVVNPMLRLGKAFASKGLLVTLSAPEIVGTEIRKANNLNDDQPIKVGSGMIRFEFFDDGWESVNGSKPFDVWVYINHLDQTGRQKLPIMLKKHEETGTPVSCLILNPLVPWVADVADSLQIPCATLWVQSCASFSAYYHYHHGLVPFPTESEPEIDVQLPGMPLLKYDEVPDYLHPRTPYPFFGTNILGQFKNLSKNFCILMDTFYELEHEIIDNMCKLCPIKPIGPLFKIPKDPSSNGITGNFMKVDDCKEWLDSRPTSTVVYVSVGSVVYLKQEQVTEMAYGILNSEVSFLWVLRPPSKRIGTEPHVLPEEFWEKAGDRGKVVQWSPQEQVLAHPATVGFLTHCGWNSTQEAISSGVPVITFPQFGDQVTNAKFLVEEFKVGVRLGRGELENRIITRDEVERALREITSGPKAEEVKENALKWKKKAEETVAKGGYSERNLVGFIEEVARKTGTK
Take B1: the “dcII production from FK (in words)” value in the assay with FK (FK-producing E. coli) was “able to successfully convert FK into dell”. Besides, the dcII production came out at 0.13 mg CA eq/L with FK (flask culture); 0.30 mg CA eq/L in the assay with FK (galU, pgm and ndk overexpressed).

B2: F17G (protein, listed as Gentiana triflora)
chain: B1 chain with F17G
Regarding B2, the “KA production compared with wild-type GtCGT” value in the assay with FK (flask culture) is on record as “higher KA production than wild-type GtCGT”.

B3: V132A (protein, listed as Gentiana triflora)
chain: B1 chain with V132A
Take B3: the “KA production compared with wild-type GtCGT” value in the assay with FK (flask culture) is on record as “higher KA production than wild-type GtCGT”.

B4: GtCGT V93Q/Y193F/I323S: GtCGT^V93Q/Y193F with additional I323S (Table 10 No. 12) (protein, listed as Gentiana triflora)
chain: B1 chain with V93Q, Y193F, I323S
With B4, the aloesin production increase in the assay on aloesone (compared to conventional concentration of 0.3 μg/L (ALS strain with GtCGT^V93Q/Y193F)) is listed as at least 25.8 fold. In the assay with aloesone (variant on pCDF-RpALS-GtCGT plasmid (additional RpALS), with pWAS-anti-pabA, pRSF-RpALS, pBBR1-zwf), this molecule gave an aloesin production of 7.75 µg/L.

B5: Y193F (protein, listed as Gentiana triflora)
chain: B1 chain with Y193F
Take B5: in the assay on FK (FK-producing E. coli), the “dcII production from FK (in words)” value was “second highest concentration of dell”. For the same molecule, in the assay with FK (flask culture), the “KA production compared with wild-type GtCGT” value is “higher KA production than wild-type GtCGT”.

B6: L164G: GtCGT single mutant L164G (protein, listed as Gentiana triflora)
chain: B1 chain with L164G
In the case of B6, the “KA production compared with wild-type GtCGT” value in the assay with FK (flask culture) is “higher KA production than wild-type GtCGT”.

B7: R322D (protein, listed as Gentiana triflora)
chain: B1 chain with R322D
B7: the “KA production compared with wild-type GtCGT” value in the assay with FK (flask culture) is recorded as “higher KA production than wild-type GtCGT”.

B8: GtCGT^V93Q (protein)
chain: B1 chain with V93Q
As to B8, in the assay on FK (FK strain, flask culture), the “dcII production increase compared to wild-type GtCGT” value is reported as “about 2.9 fold”. The “dcII production from FK (in words)” value in the assay with FK (FK-producing E. coli) was “highest dcII production”. The “KA production compared with wild-type GtCGT” value in the assay on FK (flask culture) is on record as “higher KA production than wild-type GtCGT”.

B9: ZmCGT: UGT708A6 from Zea mays which acts as a dual C/O-glycosyltransferase (protein, UniProt A0A096SRM5 1-475, looked up)
UDP-glycosyltransferase 708A6: MAANGGDHTSARPHVVLLPSAGMGHLVPFARLAVALSEGHGCNVSVAAVQPTVSSAESRLLDALFVAAAPAVRRLDFRLAPFDESEFPGADPFFLRFEATRRSAPLLGPLLDAAEASALVTDIVLASVALPVARERGVPCYVLFTSSAAMLSLCAYFPAYLDAHAAAGSVGVGVGNVDIPGVFRIPKSSVPQALHDPDHLFTQQFVANGRCLVACDGILVNTFDAFEPDAVTALRQGSITVSGGFPPVFTVGPMLPVRFQAEETADYMRWLSAQPPRSVVYVSFGSRKAIPRDQLRELAAGLEASGKRFLWVVKSTIVDRDDTADLGGLLGDGFLERVQGRAFVTMGWVEQEEILQHGSVGLFISHCGWNSLTEAAAFGVPVLAWPRFGDQRVNAALVARSGLGAWEEGWTWDGEEGLTTRKEVAKKIKGMMGYDAVAEKAAKVGDAAAAAIAKCGTSYQSLEEFVQRCRDAERK
In the case of B9, in the assay on FK (FK-producing E. coli), the “dcII production from FK (in words)” value is given as “able to successfully convert FK into dell; also recorded: very small amount” and the “main product from FK” value is “O-glycosylated FK”.
